Source: article PMC5832925, “Hypoxia-inducible lipid droplet-associated protein inhibits adipose triglyceride lipase” (Journal of Lipid Research, 2018)

How the values were obtained:
[1] = target: T1, sf-GFP-mATGL288 (mouse ATGL residues 1-288 fused to superfolder GFP) (mouse) (UniProt Q8BJ56)
T1 sequence: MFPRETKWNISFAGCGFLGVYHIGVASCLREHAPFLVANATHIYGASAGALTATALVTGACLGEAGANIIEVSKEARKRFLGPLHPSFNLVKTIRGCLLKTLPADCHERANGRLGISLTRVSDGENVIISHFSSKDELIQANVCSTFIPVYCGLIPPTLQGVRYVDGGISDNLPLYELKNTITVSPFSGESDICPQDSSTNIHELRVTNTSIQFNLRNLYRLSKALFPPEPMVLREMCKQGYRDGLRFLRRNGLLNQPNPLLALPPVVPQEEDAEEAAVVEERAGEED

[2] = target: T2, sf-GFP-mATGL288 (mouse ATGL residues 1-288 fused to superfolder GFP) (mouse, UniProt Q8BJ56 1-288); assay: MST; Monolith NT.115; smt3-tagged hHILPDA 1.1 μM to 487 μM titrated against 0.01 μM sf-GFP-mATGL_288; 20 mM phosphate, 300 mM NaCl, 1 mM EDTA, 1 mM DTT pH 7.0, 1% BSA; room temperature; triplicate; conditions: both partners purified
T2 construct: mouse adipose triglyceride lipase (ATGL), residues 1-288, patatin domain-containing region, in pST50; The functional (TGH) rows used mATGL288 without sf-GFP in an E. coli lysate; the same ATGL stretch, so they are written on this molecule; also called mATGL_1-288; source: E. coli ArcticExpress (DE3), purified (Strep Trap HP, ResourceQ, Superdex 200 Increase); not shown: superfolder GFP, …
T2 sequence (looked up): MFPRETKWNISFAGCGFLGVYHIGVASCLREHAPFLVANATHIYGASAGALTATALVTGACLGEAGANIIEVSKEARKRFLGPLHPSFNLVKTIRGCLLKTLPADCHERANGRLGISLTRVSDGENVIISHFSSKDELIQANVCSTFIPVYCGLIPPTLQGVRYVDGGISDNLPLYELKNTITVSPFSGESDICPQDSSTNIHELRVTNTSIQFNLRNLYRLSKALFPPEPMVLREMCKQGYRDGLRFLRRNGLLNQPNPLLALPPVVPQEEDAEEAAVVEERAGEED

[3] = target: T2, sf-GFP-mATGL288 (mouse ATGL residues …); assay: cell-based or functional assay

B1: hHILPDA_1-28 (6XHis-smt3-TEV fusion) (domain or fragment)
chain: MKHVLNLYLLGVVLTLLSIFVRVMESLE
IC50 of inhibition of TGH activity of mATGL288 lysate (without sf-GFP) with CGI-58; HILPDA 1-28 44 nM to 44 μM [1]: 5 µM

B2: hHILPDA_1-24 (6XHis-smt3-TEV fusion) (domain or fragment)
chain: MKHVLNLYLLGVVLTLLSIFVRVM
IC50 of inhibition of TGH activity of mATGL288 lysate (without sf-GFP) with CGI-58; HILPDA 1-24 44 nM to 44 μM [1]: 5.4 µM

B3: 6XHis-smt3-TEV-hHILPDA (human hypoxia-inducible lipid droplet-associated protein, full length) (natural protein, UniProt Q9Y5L2 1-63, looked up)
chain: MKHVLNLYLLGVVLTLLSIFVRVMESLEGLLESPSPGTSWTTRSQLANTEPTKGLPDHPSRSM
notes: human HILPDA (Hig-2), 63 amino acids, construct hHILPDA_1-63 in a modified pSUMO vector with 6XHis tag and TEV site; The fusion protein (22 kDa) was used without removal of smt3; a TEV site lies between smt3 and HILPDA; also called smt3-HILPDA fusion protein; source: E. coli BL21-CodonPlus (DE3)-RIL, purified (HisTrap FF, Superdex 200); not shown: smt3, N-terminal, kept
Kd [2]: 247 µM | IC50 of inhibition of TGH activity of mATGL288 lysate (without sf-GFP) with CGI-58; HILPDA 44 nM to 44 μM [3]: 1.9 µM
